Laboratory results taken from the DeepSol protein solubility set.

Assay: soluble on expression in E. coli; label from the status in PepcDB or PDB records
For “MKDESERVSNRLPMDESREHLMVKVARMTYQQELNQSEIAAETGLNRWQVSRLLQEARDLGIVRIEIIPRSPRRPDLETALQQTFNLNDSVVVSSDGEQAQSLDTVAQAAGQYIASIKSNGATVGVSWGRTMGAVAHWLPLQWSDGGEVVQINGTVAPISGVTYHNDVAGIFARKAGARLVPLPVPAIVGQRVTREVLERDRIVADVLTKARSAQILIFSCGSLSEESVLVRSGNILRDELATLLSKGAVGDVLGRFIDVNGEIVDAELDARTIGLSLSDLKTSGKAIGIAAGSEKFNVVLGVLRAGLVNVLVTDEATATFALEHA”, the “soluble on expression in E. coli” value was “not soluble”.
For “MKDFLRLELPVLPLRNTVVLPHTTTGVDVGRLKSKRAVEEALSADRLLFLVTQKDPEVDDPAPEDLYAVGTLAVVKQAMRLPDGTLQVMVEARSRARLLSYVAAPYLRAVGEAIPEPPLKDPELARVLVNEVQEAFERYLQNHKTLRLDRYQQEAVKSTRDPAILADLVAHHATWTLEEKQTILETPEVEERLKRVLALLLRDLERFELDKKIAARVKEQMDQNQREYYLREQMKAIQKELGGGEDFLTEIEELRERIEKKGMPEPVKEKALKELKRLERMQPGSPEATVSRTYLDWLLEVPWTEADPEVLDISVTKRVLDEDHYGLKEVKERILEYLAVRQLTQGKEVKGHAPILCFVGPPGVGKTSLGKSIARSMNRRFHRISLGGVRDEAEIRGHRRTYIGALPGKIIQGMKQVGVVNPVFLLDEIDKLSSDWRGDPAAALLEVLDPEQNHTFTDHYLDVPYDLSKVFFITTANTLSTIPRPLLDRMEVIEIPGYTLHEKRAIARYFRWPFQVKEAGLEGRLEITDRAIERIVQEYTREAGVRNLDRELSKVARKAAKDYLEKPWEGVRVVDAEDLEAYLGVPKYRPDRAEKEPQVGAAQGLAWTPYGGTLLTIEAVAVPGTGKVNLTGNLGEVMKESDHAVLTYLRVHREEWGLPEGFHKDYDLHIHVPEGATPKDGPSAGITIATALASALTGRPVRMDIAMTGEITLRGRVLPIGGVKEKLLAAHQAGIHRVILPKENAAELKEVPEEILKDLEIHFVEEVGEVLKLLLLPPPPPPAVQPDRPQPGVGA”, the “soluble on expression in E. coli” value was “soluble”.
In the case of “MKDNEIISLFELRDEHAIEALSDKYHPYCYKIAWNLLTNKEDSEECLNDTWFSVWSLIPPKKPSVLSHFCGRITRNLSIDRLRKKYADRRPDLHMADVLGEMDHLSVTYTIEDQLAEKELLEIINDFLGKMNAEDRDIFVRRYWFFDSIAAIAKRHAMSVGSVKMNLYRSRKKLLKVLKKEGKHL”, the “soluble on expression in E. coli” value is reported as “not soluble”.
With “MKDQGRSPRKRTGGRRRPNHKKKKHELGKDTVETQVGEQRLKTVDSRGNTQKVRAVKTDVASIADGAETIEATIENVVENPSNPNYARRNIITKGAILETSEGQARVTSRPGQHGQVNAVLVEAAALEHHHHHH” the “soluble on expression in E. coli” value was “soluble”.
For “MKEIELKLKGEINRLTNKTFKFDERVGEGWFSAVYFLKTREIIEEFRPKSVVTMQFFQKENAVLCGTDEVIALLQTFAKNPEELEINSLKDGDKISPFETVLTIDGPYENFGFLEGVIDGILARRTSVATNVYNVVQAARSVDKEKPVIFMGDRDDHYTQQAGDGYAAYIGGMSAQATHAMNEWWGKSGMGTMPHALIQMFNGDVVEAAKAYHKKFPEDELVVLIDYNNDVITDALRVAREFGSTLKGVRVDTSRTMIDQYFIRHPEVLGTFDPRGVNPSLVFALRKALDEEGFQHVDIVVTGGFDEKRIREFEAQNVPVDIYGVGSSLLKMNIGFTGDNVELNGKPEAKAGRKYRPNPRLERVQLEKREDM”, the “soluble on expression in E. coli” value was “not soluble”.
For “MKEKIPFYNEKEFHDMVKKTKKGTFSGWYIINKNNNSVEFSGSFNRQFKLNKPVIPVNTEYVTRKEFNEYKDSNDQRLTKIETELKSQGQRIQVVEDKVDRLTEVVMVQSQQIKTQGEAMNARMDRFESLVLKSLESIGNTLTDFGKRLDVIETRLDKIDPPK”, the “soluble on expression in E. coli” value was “soluble”.
In the case of “MKELRVKNQYEKHKEVEAAQGVKILGKDLEKTLAGLPLLVAYKDDEIPVLKDELIHELKQTLNAIKLEEKGVYVQASTLGSLEALLEFLKTSEVPYAGINIGPVHKKDVMKASVMLEHDPQYAVILAFDVRIERDAQEMADSLGVRIFSAEIIYHLFDAFTKYRQDYKKQKQEEFKHIAVFPCKMKILPQYIFNSRDPIVIGVTVEAGQVKQGTPMCVPSKNFVDIGIVTSIEINHKQVDVAKKGQEVCVKIEPIPGESPKMFGRHFEATDILVSKISRQSIDALKDWFRDEMQKSDWQLIVELKKVFEII”, the “soluble on expression in E. coli” value is reported as “soluble”.
For “MKELTNEELRGIQLEQLKYIDRICRENGIEYTLAGGSLIGAIRHGGYIPWDDDIDIELTRPHYDHLISVLMDQLPNEKYALLHYKVRETYLPFAKLYDTRTSFTSKIDNLNRGTGVFLDIFPMDILPDNEEERQVFKKEFLKKAIQLTASNPHGLDFASSSKKIYFWGKLVLWMPQHIRFYGKYRILAEKLDEFMQKYRNSDNQLISYLYTGYKKAIFPKEIWEEYEDVKFEGLTARKLKNHEEYLTRQYGDYMKLEHHHHHH”, the “soluble on expression in E. coli” value was “not soluble”.
For “MKETDLRVIKTKKALSSSLLQLLEQQLFQTITVNQICDNALVHRTTFYKHFYDKYDLLEYLFNQLTKDYFARDISDRLNHPFQTMSDTINNKEDLREIAEFQEEDAEFNKVLKNVCIKIMHNDIKNNRDRIDIDSDIPDNLIFYIYDSLIEGFIHWIKDEKIDWPGEDIDNIFHRLINIKIK”, the “soluble on expression in E. coli” value was “soluble”.
In the case of “MKEYNYIFGPIPSRRMGNSLGISSIEKRSCTYSCVYCQLGRTKNLMKEPKKFFKTEDILEEFKEYLKEDVDIDVVTVVGEGEPTLSDDLEELILGLKAITDKPVAVITNGSMLVYEKVRKALKAADIVLPSLDAGDEETFRKINRPNAKIDFNKITEALVQFSKEYNGELWMETMIVKGFNDKTEELYAIRKILDRIDYDRLYINTPVRPPAESYVEEPSKEKLDEVIRILRGTSIQMLSSGTFFSEITDDFEAIKSIISRHPMNKFEVESFLNSRKCRDKEEVLRKLKNHADIDVVSYKNYTTYRLK”, the “soluble on expression in E. coli” value is reported as “not soluble”.
In the case of “MKFAIIIPFYNAEKRLALSIDSIIKQTYSFLKHVEVLLINDGSTDRSSAIAHSYAEKYPSNIRVFDVPNGGPSKARNIGIHNVQEDTDFVGFLDADDLLSPNMLFSMVNFLEKSAVNMLVPAFYYLDDFGKKQKISPHKLNDRFTNGNRVVAIEKEPQAIHFYIGGTFFRFESLKQFVFDETLNFAEDQLLITKFLLENRSYGLIADAGYYYYRDLKQKGSLVSSAWKQPERYTPFLQKVYQTYLTNSKEIFGEVIPYVQYLIAYHAKLFFYKENIYFKEVLNEQEQEIFVRELQKILQEVGPEMIVALDTPLVVKEMMLSILRNGWPVQFKTAELEEVPLVTVKENYRPGKAVTVELLLEEARETLSDGGEFFASTSVGTAQTKVVKRKTAQTIWDIVVREEGTLEKVVTRLKPYQLKVQVFYQDKNQKITMTDLNVIKSVLGKLKRNKALKRKFKQGGVSLEHHHHHH”, the “soluble on expression in E. coli” value is reported as “soluble”.
In the case of “MKFAVIGNPISHSLSPLMHHANFQSLNLENTYEAINVPVNQFQDIKKIISEKSIDGFNVTIPHKERIIPYLDDINEQAKSVGAVNTVLVKDGKWIGYNTDGIGYVNGLKQIYEGIEDAYILILGAGGASKGIANELYKIVRPTLTVANRTMSRFNNWSLNINKINLSHAESHLDEFDIIINTTPAGMNGNTDSVISLNRLASHTLVSDIVYNPYKTPILIEAEQRGNPIYNGLDMFVHQGAESFKIWTNLEPDIKAMKNIVIQKLKGELLEHHHHHH”, the “soluble on expression in E. coli” value is reported as “soluble”.
For “MKFDPQKYRELAEKDFEAAWKAGKEILAERSPNELYPRVGFSFGKEHPLFATIQRLREAYLSIGFSEVVNPLIVEDVHVKKQFGREALAVLDRCFYLATLPKPNVGISAEKIRQIEAITKREVDSKPLQEIFHRYKKGEIDGDDLSYLIAEVLDVDDITAVKILDEVFPEFKELKPISSTLTLRSHMTTGWFITLSHIADKLPLPIKLFSIDRCFRREQGEDATRLYTYFSASCVLVDEELSVDDGKAVAEALLRQFGFENFRFRKDEKRSKYYIPDTQTEVFAFHPKLVGSSTKYSDGWIEIATFGIYSPTALAEYDIPYPVMNLGLGVERLAMILYGYDDVRKMVYPQIHGEIKLSDLDIAREIKVKEVPQTAVGLKIAQSIVETAEKHASEPSPCSFLAFEGEMMGRNVRVYVVNENENTKLCGPAYANEVVVYKGDIYGIPKTKKWRSFFEEGVPTGIRYIDGFAYYAARKVEEAAMREQEEVKVKARIVENLSDINLYIHENVRRYILWKKGKIDVRGPLFVTVKAEIE”, the “soluble on expression in E. coli” value was “soluble”.
In the case of “MKFDRHRRLRSSATMRDMVRENHVRKEDLIYPIFVVEKDDVKKEIKSLPGVYQISLNLLESELKEAYDLGIRAIMFFGVPNSKDDIGTGAYIHDGVIQQATRIAKKMYDDLLIVADTCLCEYTDHGHCGVIDDHTHDVDNDKSLPLLVKTAISQVEAGADIIAPSNMMDGFVAEIRRGLDEAGYYNIPIMSYGVKYASSFFGPFRDAADSAPSFGDRKTYQMDPANRLEALRELESDLKEGCDMMIVKPALSYLDIVRDVKNHTNVPVVAYNVSGEYSMTKAAAQNGWIDEERVVMEQMVSMKRAGADMIITYFAKDICRYLDK”, the “soluble on expression in E. coli” value is reported as “not soluble”.
In the case of “MKFVSIISNSRMLFLFLLITAKSDRESCLYIFDENIRGVNITPTFVSTRAKGLFDLFIKKLRSRVALSFFLLKRKIKLEETIVYGADHLSHSLLFLKKCSFFLIEDGTENYHQKSYKRSWKNKLFSIPKFGMYKNVKRIYLTKRENVPDCIKSKVEYINIKDLWFKKTEEEKLEILYLLGIDMKKIQLLIGEPFILFTQPLSEDYILTENEKIELYKSIIDKYDASKLVIKPHPREKTDYSRIFPNVKVFDETYPSEVLDILEVKFSRVITLFSTAAFSYPKEKVDFYGTKIHPKLLAKFGNIEYE”, the “soluble on expression in E. coli” value is reported as “not soluble”.
With “MKGEIEGITDDGIGVRVIDKNGFEHKIEMLFDGEIVYHHQKGYPDNPKERTNEEDESVAQARRFARYHVYREKGYDTVPNPDNPDRIAAVLLALIGLDDQQFDQYFGMLYEQMASHERADVAPVLDLPQEVYSEEFIVYKQNVYLEESLDAMQDQLTQPATEVFGEENLQEFLQETGDGLVAKARSLVGGGTDEDEDASEEPSIPEADLSIADVSGLDTMYSTPEGYKTIEGEDPVSREPDARIETLPMGYTREQFRYHVGHNLICQIRDCFISMGVEPPAQYRLLGHGKFKYSAKYRDFDFYPDYWDYEANIPGYSSPV” the “soluble on expression in E. coli” value was “not soluble”.
